Reference: article PMC11784390, “Conformational changes in and translocation of small proteins: insights into the ejection mechanism of podophages” (Journal of Virology, 2024)

Columns and labels:
[1] = molecular target: the molecule itself; experiment: cryo-EM structure; mature T7 virions, in situ; entire particle asymmetric 6.1 Å; local reconstructions of core complex 3 Å (four-fold), portal 2.5 Å (twelve-fold), portal–tail complex 2.7 Å (six-fold)
[2] = molecular target: the molecule itself; experiment: cryo-EM structure; DNA-ejected T7: purified mature T7 incubated with rough LPS (250 µg/mL) at 37°C for 3 h; entire particle asymmetric 8.2 Å; portal–tail complex 3.5 Å (six-fold)

| Protein | stoichiometry N [1] | stoichiometry N [2] |
| --- | --- | --- |
| fiber protein gp17 (natural protein, bacteriophage T7, UniProt P03748 1-553, looked up, tail fiber protein gp17 of bacteriophage T7, as it stands in the virion; Six trimeric fibers on the virion; also called tail fiber; source: T7 virions propagated in E. coli, purified (PEG precipitation, CsCl ultracentrifugation)) MANVIKTVLTYQLDGSNRDFNIPFEYLARKFVVVTLIGVDRKVLTINTDYRFATRTTISLTKAWGPADGYTTIELRRVTSTTDRLVDFTDGSILRAYDLNVAQIQTMHVAEEARDLTTDTIGVNNDGHLDARGRRIVNLANAVDDRDAVPFGQLKTMNQNSWQARNEALQFRNEAETFRNQAEGFKNESSTNATNTKQWRDETKGFRDEAKRFKNTAGQYATSAGNSASAAHQSEVNAENSATASANSAHLAEQQADRAEREADKLENYNGLAGAIDKVDGTNVYWKGNIHANGRLYMTTNGFDCGQYQQFFGGVTNRYSVMEWGDENGWLMYVQRREWTTAIGGNIQLVVNGQIITQGGAMTGQLKLQNGHVLQLESASDKAHYILSKDGNRNNWYIGRGSDNNNDCTFHSYVHGTTLTLKQDYAVVNKHFHVGQAVVATDGNIQGTKWGGKWLDAYLRDSFVAKSKAWTQVWSGSAGGGVSVTVSQDLRFRNIWIKCANNSWNFFRTGPDGIYFIASDGGWLRFQIHSNGLGFKNIADSRSVPNAIMVENE | 3 |  |
| nozzle protein gp12 (natural protein, bacteriophage T7, UniProt P03747 1-794, looked up, nozzle protein gp12 of bacteriophage T7, as it stands in the virion; Native virion protein; also called tail nozzle; source: T7 virions propagated in E. coli, purified (PEG precipitation, CsCl ultracentrifugation)) MALISQSIKNLKGGISQQPDILRYPDQGSRQVNGWSSETEGLQKRPPLVFLNTLGDNGALGQAPYIHLINRDEHEQYYAVFTGSGIRVFDLSGNEKQVRYPNGSNYIKTANPRNDLRMVTVADYTFIVNRNVVAQKNTKSVNLPNYNPNQDGLINVRGGQYGRELIVHINGKDVAKYKIPDGSQPEHVNNTDAQWLAEELAKQMRTNLSDWTVNVGQGFIHVTAPSGQQIDSFTTKDGYADQLINPVTHYAQSFSKLPPNAPNGYMVKIVGDASKSADQYYVRYDAERKVWTETLGWNTEDQVLWETMPHALVRAADGNFDFKWLEWSPKSCGDVDTNPWPSFVGSSINDVFFFRNRLGFLSGENIILSRTAKYFNFYPASIANLSDDDPIDVAVSTNRIAILKYAVPFSEELLIWSDEAQFVLTASGTLTSKSVELNLTTQFDVQDRARPFGIGRNVYFASPRSSFTSIHRYYAVQDVSSVKNAEDITSHVPNYIPNGVFSICGSGTENFCSVLSHGDPSKIFMYKFLYLNEELRQQSWSHWDFGENVQVLACQSISSDMYVILRNEFNTFLARISFTKNAIDLQGEPYRAFMDMKIRYTIPSGTYNDDTFTTSIHIPTIYGANFGRGKITVLEPDGKITVFEQPTAGWNSDPWLRLSGNLEGRMVYIGFNINFVYEFSKFLIKQTADDGSTSTEDIGRLQLRRAWVNYENSGTFDIYVENQSSNWKYTMAGARLGSNTLRAGRLNLGTGQYRFPVVGNAKFNTVYILSDETTPLNIIGCGWEGNYLRRSSGI |  | 6 |
| portal protein gp8 (natural protein, bacteriophage T7, UniProt P03728 1-536, looked up, portal protein gp8 of bacteriophage T7, as it stands in the virion; Native virion protein; also called dodecameric portal; source: T7 virions propagated in E. coli, purified (PEG precipitation, CsCl ultracentrifugation); copies: 12) MAEKRTGLAEDGAKSVYERLKNDRAPYETRAQNCAQYTIPSLFPKDSDNASTDYQTPWQAVGARGLNNLASKLMLALFPMQTWMRLTISEYEAKQLLSDPDGLAKVDEGLSMVERIIMNYIESNSYRVTLFEALKQLVVAGNVLLYLPEPEGSNYNPMKLYRLSSYVVQRDAFGNVLQMVTRDQIAFGALPEDIRKAVEGQGGEKKADETIDVYTHIYLDEDSGEYLRYEEVEGMEVQGSDGTYPKEACPYIPIRMVRLDGESYGRSYIEEYLGDLRSLENLQEAIVKMSMISSKVIGLVNPAGITQPRRLTKAQTGDFVTGRPEDISFLQLEKQADFTVAKAVSDAIEARLSFAFMLNSAVQRTGERVTAEEIRYVASELEDTLGGVYSILSQELQLPLVRVLLKQLQATQQIPELPKEAVEPTISTGLEAIGRGQDLDKLERCVTAWAALAPMRDDPDINLAMIKLRIANAIGIDTSGILLTEEQKQQKMAQQSMQMGMDNGAAALAQGMAAQATASPEAMAAAADSVGLQPGI | 12 |  |
